According to paper PMC3040262 (Biochemistry, 2011):

Biological target: PP1α_(7-330), His6-tag removed by TEV protease (UniProt P62136 7-330)
Assay: SEC

Chain of PP1α_(7-330), His6-tag removed by TEV protease (P62136 7-330): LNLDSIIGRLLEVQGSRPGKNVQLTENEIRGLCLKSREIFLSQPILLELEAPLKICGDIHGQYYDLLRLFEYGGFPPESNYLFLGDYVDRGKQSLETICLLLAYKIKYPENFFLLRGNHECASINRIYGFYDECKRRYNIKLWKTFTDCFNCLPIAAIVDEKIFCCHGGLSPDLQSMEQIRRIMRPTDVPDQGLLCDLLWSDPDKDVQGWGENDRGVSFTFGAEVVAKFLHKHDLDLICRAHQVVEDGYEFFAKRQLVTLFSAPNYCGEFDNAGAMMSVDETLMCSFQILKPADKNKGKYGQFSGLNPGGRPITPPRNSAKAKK

stoichiometry N: 1
B1: spinophilin_(417-583) (domain or fragment)
chain: not shown
